Starred links: 1 amine or outer side, 2 acyl side, 3 side chain; linkers in the order of their positions; H or OH if unused. Non-standard residues stand in square brackets, D forms with d. Groups on a side chain read outwards from the residue. No end group written: not given here. *: point of attachment. γGlu = O=C(O)[C@H](CCC(=O)[*:2])N[*:1]; Palmitoyl = CCCCCCCCCCCCCCCC(=O)*; αMeF = C[C@](N)(Cc1ccccc1)C(=O)O; αMeK = C[C@](N)(CCCCN)C(=O)O; αMeS = C[C@](N)(CO)C(=O)O; Aib = CC(C)(N)C(=O)O

From patent US20200079833A1 (AstraZeneca / MedImmune, published 2020) come the findings set out here.

To fix the notation:
T1: glucose-dependent insulinotropic peptide (gastric inhibitory polypeptide) receptor (human, UniProt P48546 22-466)
T1 sequence (looked up): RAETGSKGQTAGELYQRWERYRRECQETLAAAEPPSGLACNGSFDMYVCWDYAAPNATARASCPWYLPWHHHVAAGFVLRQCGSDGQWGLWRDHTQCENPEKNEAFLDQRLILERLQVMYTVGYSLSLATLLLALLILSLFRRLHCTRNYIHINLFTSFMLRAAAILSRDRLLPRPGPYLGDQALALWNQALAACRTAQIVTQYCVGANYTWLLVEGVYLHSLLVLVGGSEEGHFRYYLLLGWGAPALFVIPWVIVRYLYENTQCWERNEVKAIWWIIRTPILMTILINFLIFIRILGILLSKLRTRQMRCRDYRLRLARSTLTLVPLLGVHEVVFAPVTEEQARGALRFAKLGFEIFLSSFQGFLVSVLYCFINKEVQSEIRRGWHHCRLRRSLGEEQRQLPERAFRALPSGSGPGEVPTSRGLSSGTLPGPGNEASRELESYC

B1: SEQ ID NO 10 (peptide)
peptide: H[Aib]EGS[αMeF]TSDVSS[αMeF]VEGEAA[αMeK]E[αMeF]IA[αMeF]VV[αMeK]GG-NH2
modifications: N-terminus assumed
SMILES: CC[C@H](C)[C@H](NC(=O)[C@](C)(Cc1ccccc1)NC(=O)[C@H](CCC(=O)O)NC(=O)[C@](C)(CCCCN)NC(=O)[C@H](C)NC(=O)[C@H](C)NC(=O)[C@H](CCC(=O)O)NC(=O)CNC(=O)[C@H](CCC(=O)O)NC(=O)[C@@H](NC(=O)[C@](C)(Cc1ccccc1)NC(=O)[C@H](CO)NC(=O)[C@H](CO)NC(=O)[C@@H](NC(=O)[C@H](CC(=O)O)NC(=O)[C@H](CO)NC(=O)[C@@H](NC(=O)[C@](C)(Cc1ccccc1)NC(=O)[C@H](CO)NC(=O)CNC(=O)[C@H](CCC(=O)O)NC(=O)C(C)(C)NC(=O)[C@@H](N)Cc1c[nH]cn1)[C@@H](C)O)C(C)C)C(C)C)C(=O)N[C@@H](C)C(=O)N[C@@](C)(Cc1ccccc1)C(=O)N[C@H](C(=O)N[C@H](C(=O)N[C@@](C)(CCCCN)C(=O)NCC(=O)NCC(N)=O)C(C)C)C(C)C
B2: SEQ ID NO 76 (peptide)
peptide: H[Aib]EGS[αMeF]TSDV[αMeS]S[αMeF]LEGEAA[αMeK]E[αMeF]IK([γGlu-Palmitoyl])[αMeF]VV[αMeK]GG-NH2
modifications: N-terminus assumed
SMILES: CCCCCCCCCCCCCCCC(=O)N[C@@H](CCC(=O)NCCCC[C@H](NC(=O)[C@@H](NC(=O)[C@](C)(Cc1ccccc1)NC(=O)[C@H](CCC(=O)O)NC(=O)[C@](C)(CCCCN)NC(=O)[C@H](C)NC(=O)[C@H](C)NC(=O)[C@H](CCC(=O)O)NC(=O)CNC(=O)[C@H](CCC(=O)O)NC(=O)[C@H](CC(C)C)NC(=O)[C@](C)(Cc1ccccc1)NC(=O)[C@H](CO)NC(=O)[C@](C)(CO)NC(=O)[C@@H](NC(=O)[C@H](CC(=O)O)NC(=O)[C@H](CO)NC(=O)[C@@H](NC(=O)[C@](C)(Cc1ccccc1)NC(=O)[C@H](CO)NC(=O)CNC(=O)[C@H](CCC(=O)O)NC(=O)C(C)(C)NC(=O)[C@@H](N)Cc1c[nH]cn1)[C@@H](C)O)C(C)C)[C@@H](C)CC)C(=O)N[C@@](C)(Cc1ccccc1)C(=O)N[C@H](C(=O)N[C@H](C(=O)N[C@@](C)(CCCCN)C(=O)NCC(=O)NCC(N)=O)C(C)C)C(C)C)C(=O)O
B3: SEQ ID NO 75 (peptide)
peptide: H[Aib]EGS[αMeF]TSDV[αMeS]S[αMeF]LEGEAA[αMeK]E[αMeF]IAK([γGlu-Palmitoyl])VV[αMeK]GG-NH2
modifications: N-terminus assumed
SMILES: CCCCCCCCCCCCCCCC(=O)N[C@@H](CCC(=O)NCCCC[C@H](NC(=O)[C@H](C)NC(=O)[C@@H](NC(=O)[C@](C)(Cc1ccccc1)NC(=O)[C@H](CCC(=O)O)NC(=O)[C@](C)(CCCCN)NC(=O)[C@H](C)NC(=O)[C@H](C)NC(=O)[C@H](CCC(=O)O)NC(=O)CNC(=O)[C@H](CCC(=O)O)NC(=O)[C@H](CC(C)C)NC(=O)[C@](C)(Cc1ccccc1)NC(=O)[C@H](CO)NC(=O)[C@](C)(CO)NC(=O)[C@@H](NC(=O)[C@H](CC(=O)O)NC(=O)[C@H](CO)NC(=O)[C@@H](NC(=O)[C@](C)(Cc1ccccc1)NC(=O)[C@H](CO)NC(=O)CNC(=O)[C@H](CCC(=O)O)NC(=O)C(C)(C)NC(=O)[C@@H](N)Cc1c[nH]cn1)[C@@H](C)O)C(C)C)[C@@H](C)CC)C(=O)N[C@H](C(=O)N[C@H](C(=O)N[C@@](C)(CCCCN)C(=O)NCC(=O)NCC(N)=O)C(C)C)C(C)C)C(=O)O
B4: SEQ ID NO 73 (peptide)
peptide: H[Aib]EGS[αMeF]TSDV[αMeS]S[αMeF]LEGEAA[αMeK]E[αMeF]IA[αMeF]VK([γGlu-Palmitoyl])[αMeK]GG-NH2
modifications: N-terminus assumed
SMILES: CCCCCCCCCCCCCCCC(=O)N[C@@H](CCC(=O)NCCCC[C@H](NC(=O)[C@@H](NC(=O)[C@](C)(Cc1ccccc1)NC(=O)[C@H](C)NC(=O)[C@@H](NC(=O)[C@](C)(Cc1ccccc1)NC(=O)[C@H](CCC(=O)O)NC(=O)[C@](C)(CCCCN)NC(=O)[C@H](C)NC(=O)[C@H](C)NC(=O)[C@H](CCC(=O)O)NC(=O)CNC(=O)[C@H](CCC(=O)O)NC(=O)[C@H](CC(C)C)NC(=O)[C@](C)(Cc1ccccc1)NC(=O)[C@H](CO)NC(=O)[C@](C)(CO)NC(=O)[C@@H](NC(=O)[C@H](CC(=O)O)NC(=O)[C@H](CO)NC(=O)[C@@H](NC(=O)[C@](C)(Cc1ccccc1)NC(=O)[C@H](CO)NC(=O)CNC(=O)[C@H](CCC(=O)O)NC(=O)C(C)(C)NC(=O)[C@@H](N)Cc1c[nH]cn1)[C@@H](C)O)C(C)C)[C@@H](C)CC)C(C)C)C(=O)N[C@@](C)(CCCCN)C(=O)NCC(=O)NCC(N)=O)C(=O)O
B5: SEQ ID NO 74 (peptide)
peptide: H[Aib]EGS[αMeF]TSDV[αMeS]S[αMeF]LEGEAA[αMeK]E[αMeF]IA[αMeF]K([γGlu-Palmitoyl])V[αMeK]GG-NH2
modifications: N-terminus assumed
SMILES: CCCCCCCCCCCCCCCC(=O)N[C@@H](CCC(=O)NCCCC[C@H](NC(=O)[C@](C)(Cc1ccccc1)NC(=O)[C@H](C)NC(=O)[C@@H](NC(=O)[C@](C)(Cc1ccccc1)NC(=O)[C@H](CCC(=O)O)NC(=O)[C@](C)(CCCCN)NC(=O)[C@H](C)NC(=O)[C@H](C)NC(=O)[C@H](CCC(=O)O)NC(=O)CNC(=O)[C@H](CCC(=O)O)NC(=O)[C@H](CC(C)C)NC(=O)[C@](C)(Cc1ccccc1)NC(=O)[C@H](CO)NC(=O)[C@](C)(CO)NC(=O)[C@@H](NC(=O)[C@H](CC(=O)O)NC(=O)[C@H](CO)NC(=O)[C@@H](NC(=O)[C@](C)(Cc1ccccc1)NC(=O)[C@H](CO)NC(=O)CNC(=O)[C@H](CCC(=O)O)NC(=O)C(C)(C)NC(=O)[C@@H](N)Cc1c[nH]cn1)[C@@H](C)O)C(C)C)[C@@H](C)CC)C(=O)N[C@H](C(=O)N[C@@](C)(CCCCN)C(=O)NCC(=O)NCC(N)=O)C(C)C)C(=O)O

glucagon receptor, sequence (P47871 26-477): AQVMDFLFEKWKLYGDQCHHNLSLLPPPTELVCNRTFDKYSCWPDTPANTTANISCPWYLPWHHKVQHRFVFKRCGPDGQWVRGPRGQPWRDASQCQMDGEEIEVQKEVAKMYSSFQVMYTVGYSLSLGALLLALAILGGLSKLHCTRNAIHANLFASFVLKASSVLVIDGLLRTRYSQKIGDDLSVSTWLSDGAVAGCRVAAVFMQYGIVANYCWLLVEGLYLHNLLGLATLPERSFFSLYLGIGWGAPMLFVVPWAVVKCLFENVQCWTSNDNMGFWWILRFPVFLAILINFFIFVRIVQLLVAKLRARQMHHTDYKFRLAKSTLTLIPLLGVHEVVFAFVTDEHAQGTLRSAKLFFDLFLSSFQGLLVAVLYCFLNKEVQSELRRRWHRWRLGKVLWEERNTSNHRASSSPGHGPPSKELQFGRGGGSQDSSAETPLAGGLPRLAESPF

The first assay addresses T1, glucose-dependent insulinotropic …. Briefly: cell-based or functional assay.
For the molecule B1, the “Primary assay EC50 (cAMP), n1” value came to 100 nM and the “Primary assay EC50 (cAMP), n2” value was 100 nM.

As to B2, the “Primary assay EC50 (cAMP), n1” value amounted to 27 nM and the “Primary assay EC50 (cAMP), n2” value was 27 nM.

Regarding B3, the “Primary assay EC50 (cAMP), n1” value is 28 nM and the “Primary assay EC50 (cAMP), n2” value was found to be 28 nM.

For the molecule B4, the “Primary assay EC50 (cAMP), n1” value stood at 28 nM and the “Primary assay EC50 (cAMP), n2” value came to 28 nM.

With B5, the “Primary assay EC50 (cAMP), n1” value amounted to 28 nM and the “Primary assay EC50 (cAMP), n2” value was found to be 28 nM.

For another assay, the target named is GLP-1 receptor (human, UniProt P43220 24-463). Briefly: cell-based or functional assay.
Consider B1, for which the “Primary assay EC50 (cAMP), Mean pM GLP-1R” value is 90 pM; the “Primary assay EC50 (cAMP), n1” value was found to be 0.087 nM; the “Primary assay EC50 (cAMP), n2” value was 0.093 nM.

B2: the “Primary assay EC50 (cAMP), Mean pM GLP-1R” value came out at 7.2 pM; the “Primary assay EC50 (cAMP), n1” value was determined as 0.0084 nM; the “Primary assay EC50 (cAMP), n2” value came to 0.006 nM.

B3: the “Primary assay EC50 (cAMP), Mean pM GLP-1R” value amounted to 1.7 pM; the “Primary assay EC50 (cAMP), n1” value turned out to be 0.002 nM; the “Primary assay EC50 (cAMP), n2” value amounted to 0.0014 nM.

On to B4, for which the “Primary assay EC50 (cAMP), Mean pM GLP-1R” value is 146 pM; the “Primary assay EC50 (cAMP), n1” value came to 0.13 nM; the “Primary assay EC50 (cAMP), n2” value stood at 0.16 nM.

Turning to B5, the “Primary assay EC50 (cAMP), Mean pM GLP-1R” value came out at 2.1 pM; the “Primary assay EC50 (cAMP), n1” value was determined as 0.0023 nM; the “Primary assay EC50 (cAMP), n2” value turned out to be 0.002 nM.

A further assay addresses glucagon receptor (human, UniProt P47871 26-477). The assay is described as follows: cell-based or functional assay.
B1: the “Primary assay EC50 (cAMP), n1” value turned out to be 100 nM and the “Primary assay EC50 (cAMP), n2” value was found to be 100 nM.

As to B2, the “Primary assay EC50 (cAMP), n1” value is 27 nM and the “Primary assay EC50 (cAMP), n2” value came out at 27 nM.

Take B3: the “Primary assay EC50 (cAMP), n1” value stood at 28 nM and the “Primary assay EC50 (cAMP), n2” value was determined as 28 nM.

Consider B4, for which the “Primary assay EC50 (cAMP), n1” value was 28 nM and the “Primary assay EC50 (cAMP), n2” value turned out to be 28 nM.

In the case of B5, the “Primary assay EC50 (cAMP), n1” value amounted to 28 nM and the “Primary assay EC50 (cAMP), n2” value stood at 28 nM.
